Assay results from publication PMC509406, “Emerin Caps the Pointed End of Actin Filaments: Evidence for an Actin Cortical Network at the Nuclear Inner Membrane” (PLoS Biology, 2004).
Numbering of substitutions follows the chain as printed. Values joined by “and” are separate entries in the source; they are usually repeats but may differ in a detail not shown here. Equal entries are not always repeated. One block for each binder: values may come before it.

Columns and labels:
[1] = target: T1, purified actin (F-actin or G-actin; species not told for these experiments) ( (purified chicken and rabbit …, UniProt P68135 1-377); test: co-sedimentation; actin polymerized in KMEI buffer, incubated 30 min with recombinant emerin (4 μM in text and methods, 2 μM in the legend), pelleted at 100,000g for 1 h; SDS-PAGE, Coomassie blue; conditions: both partners purified
[2] = target: T2, rabbit actin (Cytoskeleton, catalog #AKL95) (rabbit, UniProt P68135 1-377); test: cell-based or functional assay
[3] = target: T1, purified actin (F-actin or G-actin; …); test: F-actin column (affinity determination); F-actin column used to determine the affinity of F-actin for emerin; n = 8; conditions: both partners purified
[4] = target: T2, rabbit actin (Cytoskeleton, catalog …); test: pyrene–actin polymerization rate against emerin concentration; 2 μM rabbit actin with 5% pyrene–actin; emerin 0.1 to 4.4 μM added just prior to polymerization; R/cR; equilibrium affinity from activity; conditions: both partners purified
[5] = target: T2, rabbit actin (Cytoskeleton, catalog …); test: depolymerization of actin filaments grown from gelsolin–actin seeds against emerin concentration; filaments from 2 μM actin and gelsolin–actin seeds diluted 10-fold to 0.2 μM actin with 0–2 μM emerin 1–222; apparent Kd; n = 6; conditions: both partners purified
[6] = target: T2, rabbit actin (Cytoskeleton, catalog …); test: pointed-end elongation of gelsolin–actin seeds (pyrene–actin) against emerin concentration; gelsolin–actin dimers (10 nM), 2 μM actin, 0 to 2 μM wild-type emerin 1–222; apparent Kd from the reduction of the rate; n = 12; conditions: both partners purified

- stoichiometry N [1]: ~300 actin monomers per emerin molecule
- critical concentration for pointed-end growth (5 nM gelsolin–actin seeds, 625 nM emerin, 16 h at room temperature) [2]: 2.3 to 2.7 fold
- rate of depolymerization of filaments grown from gelsolin–actin seeds, diluted to 0.2 μM actin, emerin 0–2 μM [2]: ≤ 8 fold
- rate of depolymerization of preformed filaments capped at the barbed end with capping protein (CapZ), diluted into 0.2 μM actin (data not shown) [2]: 10 fold
- rate of pyrene–actin polymerization (R/cR), emerin 0.1 to 4.4 μM, 2 μM actin [2]: 4 fold
- Kd [3]: 480 nM and 300 to 500 nM
- Kd [4]: 420 nM
- Kd [5]: 380 nM and 350 to 450 nM
- Kd [6]: 430 nM and 300 to 500 nM
B1: wild-type emerin (residues 1–222), the full nucleoplasmic domain (domain or fragment)
chain: MDNYADLSDTELTTLLRRYNIPHGPVVGSTRRLYEKKIFEYETQRRRLSPPSSSAASSYSFSDLNSTRGDADMYDLPKKEDALLYQSKGYNDDYYEESYFTTRTYGEPESAGPSRAVRQSVTSFPDADAFHHQVHDDDLLSSSEEECKDRERPMYGRDSAYQSITHYRPVSASRSSLDLSYYPTSSSTSFMSSSSSSSSWLTRRAIRPENRAPGAGLGQDRQ
notes: emerin, residues 1–222, the entire nucleoplasmic domain, lacking the transmembrane domain; also called emr; WT; source: expressed in bacteria and purified

- rate of pyrene–actin polymerization, 1 μM mutant, 2.0 μM G-actin, against wild-type emerin [2]: ~50 % of wild-type emerin
B2: emerin (residues 1–222) alanine substitution mutant m196 (domain or fragment)
chain: B1 chain with S196A, S197A
